In the experiment the target is CaCl2-washed photosystem II complex (T. elongatus | T. elongatus (endogenous)) (UniProt Q8DIF8). Kind of experiment: native gel or EMSA. A general note: Mobility shift assays separate free from complexed probe on a gel.

One may read the stoichiometry N as the number of molecules, sites or subunits per partner or assembly. Turning to “CaCl2-washed photosystem II complex (from UniProt Q8DIF8 1-461; P0A444 1-344; Q8DIQ1 1-510)”, the stoichiometry N came out at 2.

The values above are taken from doi:10.1101/2021.06.28.450235.
